Data published in paper PMC6423188, “HYNIC and DOMA conjugated radiolabeled bombesin analogs as receptor-targeted probes for scintigraphic detection of breast tumor” (EJNMMI Research, 2019).

Columns and labels:
[1] = physchem; assay type: physicochemical; conditions: pH 7.4
Experimental: Lipophilicity of the HPLC-purified radiopeptide analogs was determined through octanol/water partition coefficients, determined at pH 7.4 by measuring the distribution of the HPLC purified radiolabeled peptides in 1-octanol and PBS. Then, 50 μL HPLC purified ^99mTc-BN1/^99mTc-BN2/^99mTc-BN3/^99mTc-BN4/^99mTc-BNS with 100 μCi of radiolabeled compound in PBS was added to a to a centrifuge tube containing 1 mL n-octanol and 1 mL PBS (0.025 M, pH 7.4). The tube was vortexed at room temperature for 2 min and they are centrifuged at 5000 rpm for 5 min to ensure complete separation of layers. Further, 100 μL of each phase was transferred into a separate pre-weighed vial and measured in the well γ-counter. The ratio of octanol layer counts to aqueous layer counts was expressed as the distribution coefficient (D, the appropriate descriptor for ionizable compounds) and logD was used for determination of lipophilicity. Counts per unit weight of the sample were calculated, and logD value as calculated as follows:
log10D = log10 [(cpm in octanol – cpm in background) / (cpm in buffer – cpm in background)]

[2] = in vitro; assay type: in vitro ADME; conditions: rat
Experimental: An aliquot (100 μL) of ^99mTc-BN1/^99mTc-BN2/^99mTc-BN3/^99mTc-BN4/^99mTc-BNS was added to 1 mL of freshly collected rat serum in centrifuge tube. The mixture was then incubated at 37 °C for 1 h; the serum protein was precipitated by adding 1 mL trichloroacetic acid (10%, V/V). The supernatant and precipitate were separated by centrifugation at 3000 rpm for 5 min. Radioactivities of both the phases were measured separately. The above experimental procedure was repeated three times. The percentage of protein binding was determined as: Plasma protein binding % = (precipitate counts (CPM) / [precipitate counts (CPM) + plasma counts (CPM)]) × 100%.

[3] = system: MDA-MB-231 tumor-bearing mice; test: In vivo biodistribution; design: species or system mouse; conditions: for Tumor uptake: MDA-MB-231 tumor; for Tumor uptake / Blood uptake / Heart uptake / Intestine uptake / Kidney uptake / Liver uptake / Lung uptake / Muscle uptake / Pancreas uptake / Spleen uptake / Stomach uptake / Urine + urinary bladder uptake: mean ± SD, n = 3
Experimental: All animal experiments were done according to the CSIR-IICB Animal Ethics Committee’s rules and regulation. Forty-eight hours before tumor cell implantation, an immunosuppressive drug (cyclosporine-A) was given intraperitoneal (i.p) at a concentration of 30 mg/kg/day. After that, MDA-MB-231 cells (5 × 10^6) 0.2 mL were implanted subcutaneously into the left flanks of the hind leg of BALB/c mice. Thereafter, the same dose of cyclosporine was given i.p. daily up to 2 weeks. Two weeks after inoculation of the tumor cells, when tumors reached ~ 0.5 cm in mean diameter, the tumor-bearing mice were used for biodistribution and imaging studies. Animals were monitored daily and their weights were recorded. Control group of mice received only 0.9 wt% saline. After cell implantation, the growth rate of the breast tumor followed a satisfactory pattern of spheroid shape and tumors are palpable within 2 to 4 weeks. MDA-MB-231 cell implanted mice tumor models were used for biodistribution and planar imaging studies of these radiolabeled new bombesin analogs.
In tissue biodistribution studies, tumor-bearing animals were divided into four groups and well hydrated for 1 h by intraperitoneal administration of saline (0.9%, 2 mL). Three animals per groups were used for biodistribution studies. After that, the radiolabeled new bombesin analogs (^99mTc-BN) were injected intravenously in each animal of each group consequently through the tail vein [24–27]. After 5, 30, 60, and 120 min intravenous administrations of radiolabeled analogs, the animals were sacrificed; blood, heart, lung, liver, kidney, stomach, intestine, spleen, pancreas, brain, muscle, and tumor were excised, weighed, and counted for radioactivity. The organ uptake was calculated as a percentage of the injected activity per gram of wet tissue (%IA/g). In order to evaluate whether binding of bombesin analogs to MDA-MB-231 cells in vivo is specific; blocking studies with ^99mTc-labeled bombesin analogs in tumor-bearing mice were carried out. Groups of three animals were injected 0.03 nmol of ^99mTc-labeled BN analogs (2 MBq) with 25 nmol of non-radiolabeled BN peptide. After 60 min and 120 min, mice were sacrificed and the organs were collected. Each organ was weighed and counted in a gamma counter along with activity standard and percentage of injected activity per gram (%IA/g) of tissue was calculated for each type of tissues. Counts were corrected for background radiation and physical decay of the radioactivity. The uptake was expressed in the percentage of injected activity per gram of each organ (%IA/g). Data were analyzed statistically by the t test, with the level of significance set at P < 0.05.

[4] = 60 min p.i., blocked with excess non-radiolabeled BN peptide

## ^99mTc-BN(7-14)NH2 [99mTc-BNS, reference compound]
[1]
  logD: − 0.42 ± 0.10
[2]
  Percentage of plasma protein binding: 54%
[3]; 5 min p.i., i.v.
  Tumor uptake: 0.45 ± 0.12 %IA/g
  Blood uptake: 1.25 ± 0.05 %IA/g
  Heart uptake: 1.80 ± 0.02 %IA/g
  Intestine uptake: 0.84 ± 0.03 %IA/g
  Kidney uptake: 2.86 ± 0.10 %IA/g
  Liver uptake: 1.60 ± 0.07 %IA/g
  Lung uptake: 1.35 ± 0.04 %IA/g
  Muscle uptake: 0.16 ± 0.03 %IA/g
  Pancreas uptake: 0.88 ± 0.01 %IA/g
  Spleen uptake: 0.22 ± 0.04 %IA/g
  Stomach uptake: 0.76 ± 0.03 %IA/g
  Urine + urinary bladder uptake: 0.56 ± 0.02 %IA/g
[3]; 30 min p.i., i.v.
  Tumor uptake: 0.95 ± 0.05 %IA/g
  Blood uptake: 1.02 ± 0.03 %IA/g
  Heart uptake: 1.10 ± 0.01 %IA/g
  Intestine uptake: 0.52 ± 0.05 %IA/g
  Kidney uptake: 3.12 ± 0.20 %IA/g
  Liver uptake: 0.85 ± 0.06 %IA/g
  Lung uptake: 0.84 ± 0.11 %IA/g
  Muscle uptake: 0.26 ± 0.02 %IA/g
  Pancreas uptake: 1.73 ± 0.10 %IA/g
  Spleen uptake: 0.18 ± 0.03 %IA/g
  Stomach uptake: 0.69 ± 0.05 %IA/g
  Urine + urinary bladder uptake: 1.92 ± 0.07 %IA/g
[3]; 60 min p.i.
  tumor/kidney ratio: 0.26
[3]; [4]
  Tumor uptake: 0.68 ± 0.20 %IA/g
  Blood uptake: 0.84 ± 0.01 %IA/g
  Heart uptake: 0.77 ± 0.11 %IA/g
  Intestine uptake: 0.36 ± 0.02 %IA/g
  Kidney uptake: 2.88 ± 0.12 %IA/g
  Liver uptake: 0.42 ± 0.04 %IA/g
  Lung uptake: 0.70 ± 0.05 %IA/g
  Muscle uptake: 0.17 ± 0.03 %IA/g
  Pancreas uptake: 0.90 ± 0.02 %IA/g
  Spleen uptake: 0.10 ± 0.03 %IA/g
  Stomach uptake: 0.45 ± 0.01 %IA/g
  Urine + urinary bladder uptake: 2.58 ± 0.18 %IA/g
[3]; 60 min p.i., i.v.
  Tumor uptake: 0.75 ± 0.04 %IA/g
  Blood uptake: 0.82 ± 0.01 %IA/g
  Heart uptake: 0.79 ± 0.12 %IA/g
  Intestine uptake: 0.31 ± 0.02 %IA/g
  Kidney uptake: 2.82 ± 0.16 %IA/g
  Liver uptake: 0.40 ± 0.05 %IA/g
  Lung uptake: 0.68 ± 0.03 %IA/g
  Muscle uptake: 0.18 ± 0.04 %IA/g
  Pancreas uptake: 1.14 ± 0.05 %IA/g
  Spleen uptake: 0.11 ± 0.02 %IA/g
  Stomach uptake: 0.46 ± 0.04 %IA/g
  Urine + urinary bladder uptake: 2.54 ± 0.22 %IA/g
[3]; 120 min p.i., i.v.
  Tumor uptake: 0.58 ± 0.01 %IA/g
  Blood uptake: 0.54 ± 0.01 %IA/g
  Heart uptake: 0.50 ± 0.01 %IA/g
  Intestine uptake: 0.22 ± 0.01 %IA/g
  Kidney uptake: 2.40 ± 0.12 %IA/g
  Liver uptake: 0.22 ± 0.02 %IA/g
  Lung uptake: 0.33 ± 0.02 %IA/g
  Muscle uptake: 0.11 ± 0.02 %IA/g
  Pancreas uptake: 0.95 ± 0.04 %IA/g
  Spleen uptake: 0.06 ± 0.11 %IA/g
  Stomach uptake: 0.12 ± 0.02 %IA/g
  Urine + urinary bladder uptake: 2.85 ± 0.03 %IA/g
